Reference: PMC7754295

Experiments:
Test in all cases: native gel or EMSA
[1] = target: NpHV1‐GFP (Nicoletia phytophila voltage‐gated proton channel 1 with GFP) (Nicoletia phytophila)
[2] = target: NpHV1‐GFP with C‐terminal StrepTagII (Nicoletia phytophila)
[3] = target: NpHV1‐GFP with C‐terminal deca‐His Tag (Nicoletia phytophila)

Substance: NpHV1‐GFP (Nicoletia phytophila voltage‐gated proton channel 1 with GFP) (natural protein)
- stoichiometry N [1]: 2

Substance: NpHV1‐GFP with C‐terminal StrepTagII (natural protein)
- stoichiometry N [2]: 2

Substance: NpHV1‐GFP with C‐terminal deca‐His Tag (natural protein)
- stoichiometry N [3]: 2
